Measured values as given in US20180319872A1 (UNIVERSITY OF MARYLAND BALTIMORE, published 2018).

Tests used:
[1] = molecular target: T1, Clostridium difficile toxin B (TcdB) (Clostridium difficile, UniProt P18177 2-2366); assay: binding kinetics, method not stated
T1 construct: also called TxB

[2] = molecular target: T1, Clostridium difficile toxin B (TcdB); assay: ELISA on plates coated with 1 ug/ml TcdB (TxB), OD450
[3] = molecular target: T2, Clostridium difficile toxin A (TcdA) (Clostridium difficile, UniProt P16154 1-2710); assay: binding kinetics, method not stated
T2 construct: also called TxA; rTcdA
T2 sequence (P16154 whole entry): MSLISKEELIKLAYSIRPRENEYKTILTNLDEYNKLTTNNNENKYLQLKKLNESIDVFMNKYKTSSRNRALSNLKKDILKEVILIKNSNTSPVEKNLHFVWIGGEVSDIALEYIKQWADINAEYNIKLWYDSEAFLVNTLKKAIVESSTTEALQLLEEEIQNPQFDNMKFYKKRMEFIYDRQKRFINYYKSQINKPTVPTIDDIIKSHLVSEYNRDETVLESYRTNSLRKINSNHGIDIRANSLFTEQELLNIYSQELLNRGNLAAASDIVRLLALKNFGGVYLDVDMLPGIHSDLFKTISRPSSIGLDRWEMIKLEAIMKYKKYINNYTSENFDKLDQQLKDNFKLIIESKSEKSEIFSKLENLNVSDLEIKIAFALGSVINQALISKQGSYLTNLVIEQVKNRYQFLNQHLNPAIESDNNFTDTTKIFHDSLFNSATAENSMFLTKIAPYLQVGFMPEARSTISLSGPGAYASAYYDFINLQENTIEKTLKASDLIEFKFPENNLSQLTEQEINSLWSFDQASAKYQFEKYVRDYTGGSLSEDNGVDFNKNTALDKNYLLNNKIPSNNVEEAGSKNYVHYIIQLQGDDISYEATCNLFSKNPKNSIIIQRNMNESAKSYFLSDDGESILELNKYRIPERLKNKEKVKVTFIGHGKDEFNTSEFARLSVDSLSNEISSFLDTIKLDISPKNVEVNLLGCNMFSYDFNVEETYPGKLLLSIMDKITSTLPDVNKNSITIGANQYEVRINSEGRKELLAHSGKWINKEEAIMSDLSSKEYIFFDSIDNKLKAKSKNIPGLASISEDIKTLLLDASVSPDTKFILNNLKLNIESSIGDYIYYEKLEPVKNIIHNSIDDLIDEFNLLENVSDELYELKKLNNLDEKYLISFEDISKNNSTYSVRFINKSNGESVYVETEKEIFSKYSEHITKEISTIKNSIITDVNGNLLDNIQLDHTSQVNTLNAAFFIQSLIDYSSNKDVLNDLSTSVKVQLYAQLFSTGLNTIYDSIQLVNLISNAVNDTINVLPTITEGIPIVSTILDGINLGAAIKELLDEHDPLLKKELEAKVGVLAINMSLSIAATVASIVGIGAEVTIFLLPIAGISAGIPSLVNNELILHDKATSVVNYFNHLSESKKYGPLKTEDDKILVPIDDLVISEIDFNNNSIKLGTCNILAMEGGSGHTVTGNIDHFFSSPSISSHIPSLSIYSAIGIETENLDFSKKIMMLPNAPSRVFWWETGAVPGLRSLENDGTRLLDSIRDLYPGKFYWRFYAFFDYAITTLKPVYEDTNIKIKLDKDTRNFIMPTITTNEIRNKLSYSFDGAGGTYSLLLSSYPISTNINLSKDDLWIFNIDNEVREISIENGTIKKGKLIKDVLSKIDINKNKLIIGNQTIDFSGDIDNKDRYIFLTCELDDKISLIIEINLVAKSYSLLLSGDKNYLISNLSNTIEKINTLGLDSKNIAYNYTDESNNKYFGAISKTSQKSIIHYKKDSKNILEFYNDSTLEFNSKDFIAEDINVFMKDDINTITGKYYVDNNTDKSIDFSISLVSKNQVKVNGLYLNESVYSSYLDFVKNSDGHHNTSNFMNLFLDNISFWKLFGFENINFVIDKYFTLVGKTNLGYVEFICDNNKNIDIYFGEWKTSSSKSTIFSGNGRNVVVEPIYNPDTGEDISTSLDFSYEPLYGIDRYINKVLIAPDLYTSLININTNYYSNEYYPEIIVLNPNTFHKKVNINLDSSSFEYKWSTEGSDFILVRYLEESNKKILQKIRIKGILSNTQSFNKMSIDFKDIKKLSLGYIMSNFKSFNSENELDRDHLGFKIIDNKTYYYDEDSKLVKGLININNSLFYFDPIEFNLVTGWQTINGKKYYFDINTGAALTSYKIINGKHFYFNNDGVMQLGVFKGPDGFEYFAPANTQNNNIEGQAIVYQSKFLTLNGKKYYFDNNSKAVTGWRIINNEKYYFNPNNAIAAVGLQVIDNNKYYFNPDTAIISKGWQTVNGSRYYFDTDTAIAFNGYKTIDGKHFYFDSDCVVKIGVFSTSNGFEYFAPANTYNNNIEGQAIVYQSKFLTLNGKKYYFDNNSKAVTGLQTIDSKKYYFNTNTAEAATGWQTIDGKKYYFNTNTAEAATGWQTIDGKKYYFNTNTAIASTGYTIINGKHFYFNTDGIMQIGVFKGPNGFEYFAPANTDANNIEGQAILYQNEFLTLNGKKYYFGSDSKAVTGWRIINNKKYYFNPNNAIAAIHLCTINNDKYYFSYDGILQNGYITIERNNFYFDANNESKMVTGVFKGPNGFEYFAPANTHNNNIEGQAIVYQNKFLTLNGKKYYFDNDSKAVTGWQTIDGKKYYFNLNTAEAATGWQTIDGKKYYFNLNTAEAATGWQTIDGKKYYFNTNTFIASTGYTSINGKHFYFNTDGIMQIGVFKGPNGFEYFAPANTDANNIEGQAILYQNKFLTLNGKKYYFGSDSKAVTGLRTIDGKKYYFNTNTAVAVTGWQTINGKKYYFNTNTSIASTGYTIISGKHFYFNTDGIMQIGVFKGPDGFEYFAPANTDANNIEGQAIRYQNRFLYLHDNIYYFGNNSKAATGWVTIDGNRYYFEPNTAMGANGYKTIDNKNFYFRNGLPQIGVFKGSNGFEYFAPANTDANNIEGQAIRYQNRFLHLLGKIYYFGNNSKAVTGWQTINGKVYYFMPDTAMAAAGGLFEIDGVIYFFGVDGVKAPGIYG

T1 sequence (P18177 2-2366 limits assumed): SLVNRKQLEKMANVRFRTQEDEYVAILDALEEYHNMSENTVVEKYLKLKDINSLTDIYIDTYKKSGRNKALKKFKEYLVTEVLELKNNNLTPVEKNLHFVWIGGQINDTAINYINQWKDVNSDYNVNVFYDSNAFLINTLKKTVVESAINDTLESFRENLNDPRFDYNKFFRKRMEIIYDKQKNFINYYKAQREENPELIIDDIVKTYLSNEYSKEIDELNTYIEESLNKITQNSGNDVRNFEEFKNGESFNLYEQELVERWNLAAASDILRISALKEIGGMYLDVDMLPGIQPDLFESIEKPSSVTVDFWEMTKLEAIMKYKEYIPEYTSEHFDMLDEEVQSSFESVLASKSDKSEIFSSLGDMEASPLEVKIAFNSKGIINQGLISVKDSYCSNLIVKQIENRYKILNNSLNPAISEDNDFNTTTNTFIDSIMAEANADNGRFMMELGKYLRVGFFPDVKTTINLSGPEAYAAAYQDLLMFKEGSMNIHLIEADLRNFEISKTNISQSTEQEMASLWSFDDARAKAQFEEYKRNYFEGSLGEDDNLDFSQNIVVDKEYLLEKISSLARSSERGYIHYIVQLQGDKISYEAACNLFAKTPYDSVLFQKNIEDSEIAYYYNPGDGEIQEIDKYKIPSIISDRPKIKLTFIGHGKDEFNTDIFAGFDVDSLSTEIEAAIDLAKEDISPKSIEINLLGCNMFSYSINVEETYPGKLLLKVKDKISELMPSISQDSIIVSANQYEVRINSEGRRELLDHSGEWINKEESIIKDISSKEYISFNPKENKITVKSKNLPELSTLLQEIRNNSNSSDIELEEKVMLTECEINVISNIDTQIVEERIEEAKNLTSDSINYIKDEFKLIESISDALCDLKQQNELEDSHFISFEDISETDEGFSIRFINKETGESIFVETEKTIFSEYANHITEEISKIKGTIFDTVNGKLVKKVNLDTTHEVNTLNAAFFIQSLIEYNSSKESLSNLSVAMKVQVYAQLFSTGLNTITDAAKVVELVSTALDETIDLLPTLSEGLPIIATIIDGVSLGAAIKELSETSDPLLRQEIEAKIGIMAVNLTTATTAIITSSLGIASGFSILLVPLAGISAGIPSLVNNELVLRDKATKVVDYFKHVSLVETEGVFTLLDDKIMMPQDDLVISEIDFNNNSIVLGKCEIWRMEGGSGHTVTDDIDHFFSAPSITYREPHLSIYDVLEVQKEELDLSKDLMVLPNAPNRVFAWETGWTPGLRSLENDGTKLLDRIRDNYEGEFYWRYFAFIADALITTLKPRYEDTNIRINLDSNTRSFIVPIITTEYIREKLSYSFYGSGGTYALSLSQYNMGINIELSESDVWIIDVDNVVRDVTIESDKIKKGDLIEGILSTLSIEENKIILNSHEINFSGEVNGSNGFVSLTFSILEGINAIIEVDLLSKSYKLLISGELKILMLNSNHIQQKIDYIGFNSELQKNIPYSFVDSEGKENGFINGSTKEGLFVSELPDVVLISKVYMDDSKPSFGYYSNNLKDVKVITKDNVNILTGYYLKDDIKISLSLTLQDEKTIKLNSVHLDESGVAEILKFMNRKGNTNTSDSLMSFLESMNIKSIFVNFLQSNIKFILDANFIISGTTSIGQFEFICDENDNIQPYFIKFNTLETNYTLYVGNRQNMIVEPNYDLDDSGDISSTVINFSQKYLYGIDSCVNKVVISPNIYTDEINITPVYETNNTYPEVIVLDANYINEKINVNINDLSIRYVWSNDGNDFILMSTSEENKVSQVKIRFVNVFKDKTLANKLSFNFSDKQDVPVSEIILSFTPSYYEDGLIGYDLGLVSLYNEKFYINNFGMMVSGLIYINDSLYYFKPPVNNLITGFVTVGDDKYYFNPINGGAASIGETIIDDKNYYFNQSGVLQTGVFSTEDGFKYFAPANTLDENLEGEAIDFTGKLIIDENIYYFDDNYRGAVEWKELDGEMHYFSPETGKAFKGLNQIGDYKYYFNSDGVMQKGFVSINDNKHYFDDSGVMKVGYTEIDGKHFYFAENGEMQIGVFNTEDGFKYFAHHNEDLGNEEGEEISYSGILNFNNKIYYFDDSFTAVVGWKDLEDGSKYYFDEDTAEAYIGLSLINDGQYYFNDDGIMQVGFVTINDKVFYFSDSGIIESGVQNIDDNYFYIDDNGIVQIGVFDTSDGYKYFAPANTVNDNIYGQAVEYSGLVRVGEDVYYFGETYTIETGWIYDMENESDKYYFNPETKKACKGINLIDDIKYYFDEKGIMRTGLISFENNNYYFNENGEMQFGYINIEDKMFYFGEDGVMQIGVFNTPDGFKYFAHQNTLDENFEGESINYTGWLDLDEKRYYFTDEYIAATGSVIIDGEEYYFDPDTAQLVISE

B1: VHH peptide monomer E3 (VHH)
VHH: QVQLVESGGGLVQTGGSLRLSCASSGSIAGFETVTWSRQAPGKSLQWVASMTKTNNEIYSDSVKGRFIISRDNAKNTVYLQMNSLKPEDTGVYFCKGPELRGQGIQVTVSS
notes: also called VHH E3
Kd [1]: 0.03 nM
koff [1]: 9.4e-05 s⁻¹
kon [1]: 2.95e+06 M⁻¹ s⁻¹
EC50 (read off the curve) [2]: ~0.02 µg/mL

B2: ABAB binding agent (AH3/5D/AA6/E3, tetra-specific tetrameric VHH) (designed binder)
chain: QVQLVETGGGLVQPGGSLRLSCAASGFTLDYSSIGWFRQAPGKEREGVSCISSSGDSTKYADSVKGRFTTSRDNAKNTVYLQMNSLKPDDTAVYYCAAFRATMCGVFPLSPYGKDDWGKGTLVTVSSGGGGSGGGGSGGGGSQVQLVESGGGLVQPGGSLRLSCEASGFTLDYYGIGWFRQPPGKEREAVSYISASARTILYADSVKGRFTISRDNAKNAVYLQMNSLKREDTAVYYCARRRFSASSVNRWLADDYDVWGRGTQVAVSSGGGSGGGSGGGSGGGSQLQLVETGGGLVQPGGSLRLSCAASGFTFSDYVMTWVRQAPGKGPEWIATINTDGSTMRDDSTKGRFTISRDNAKNTLYLQMTSLKPEDTALYYCARGRVISASAIRGAVRGPGTQVTVSSGGGGSGGGGSGGGGSQVQLVESGGGLVQTGGSLRLSCASSGSIAGFETVTWSRQAPGKSLQWVASMTKTNNEIYSDSVKGRFIISRDNAKNTVYLQMNSLKPEDTGVYFCKGPELRGQGIQVTVSS
notes: also called r-ABAB; recombinant ABAB
Kd [1]: 0.002 nM
koff [1]: 3.57e-06 s⁻¹
kon [1]: 1.79e+06 M⁻¹ s⁻¹

B3: VHH peptide monomer 5D (VHH)
VHH: QVQLVESGGGLVQPGGSLRLSCEASGFTLDYYGIGWFRQPPGKEREAVSYISASARTILYADSVKGRFTISRDNAKNAVYLQMNSLKREDTAVYYCARRRFSASSVNRWLADDYDVWGRGTQVAVSS
Kd [1]: 0.65 nM
koff [1]: 0.000994 s⁻¹
kon [1]: 1.52e+06 M⁻¹ s⁻¹

B4: VHH peptide monomer AH3 (VHH)
VHH: QVQLVETGGLVQPGGSLRLSCAASGFTLDYSSIGWFRQAPGKEREGVSCISSSGDSTKYADSVKGRFTTSRDNAKNTVYLQMNSLKPDDTAVYYCAAFRATMCGVFPLSPYGKDDWGKGTLVTVSS
notes: also called VHH AH3
Kd [3]: 32 nM
koff [3]: 0.00071 s⁻¹
kon [3]: 22000 M⁻¹ s⁻¹
